The values that follow come from article PMC4743925, “Targeting an Essential GTPase Obg for the Development of Broad-Spectrum Antibiotics” (PLoS ONE, 2016).

Substrate in this data set: Nc1nc2c(ncn2[C@@H]2O[C@H](COP(=O)(O)OP(=O)(O)OP(=O)(O)O)[C@@H](O)[C@H]2O)c(=O)[nH]1
The data set is described as follows: BIOMOL Green (malachite green) phosphate release. In kind it is biochemical, Neisseria gonorrhoeae. The conditions noted are these: 5 μM protein, 10-1000 μM GTP, 6 h, 37 °C, pH 8.0, 10 mM MgCl2, 50 mM KCl.

B1: ObgGC (Neisseria gonorrhoeae FA 1090) (protein)
chain: MKFIDEAKIEVAAGKGGNGATSFRREKFVPRGGPDGGDGGKGGSVWAEADENTNTLVEYRFVKRYQAKNGEKGHGSDRYGAGADDIVLKMPVGTLIRDLDTDEIVADLTYHGQRVCLAKGGKGGLGNIHFKSSVNRAPKQSTPGEEGETRSLQLELKVLADVGLLGMPNAGKSTLITAVSAARPKIANYPFTTLHPNLGVVRIDENHSFVMADIPGLIEGAAEGAGLGHRFLKHLSRTGLLLHVVDLAPFDETVNPAEEALAIINELRKYDEELYGKPRWLVLNKLDMLDEEEARARTAAFLEAVGWDYPEPDDRFQFDMETPRLFQISALTHQGTQELVHQINQYLAEKKRIEAEKAEAEKAAANVEIIEQQPKTDTGVFKPE
notes: full-length with C-terminal 6xHis tag, expressed in E. coli BL21(DE3), IMAC and size exclusion; tag not reported cut
Consider B1, for which the Michaelis constant (Km) was determined as 78.76 µM.

As a reminder, the Km is the substrate concentration at which the rate is half of its maximum.
